In article PMC3279587:

B1: N11 (dsDNA)
DNA 1: GTCTGGCAGTTAATTCGGCTTAGTAGC
DNA 2: GCTACTAAGCCGAATTAACTGCCAGAC
B2: N30 (dsDNA)
DNA 1: GTCTGGCCTCTAATTACGCCTAATTGC
DNA 2: GCAATTAGGCGTAATTAGAGGCCAGAC
B3: Lmo1 (dsDNA)
DNA 1: GTAATGAATTGATTTAATTAACAGGGGAGTCTGA
DNA 2: TCAGACTCCCCTGTTAATTAAATCAATTCATTAC
B4: N25 (dsDNA)
DNA 1: GTCTGGCCATTAATGATATCAATTAGC
DNA 2: GCTAATTGATATCATTAATGGCCAGAC
B5: N9 (dsDNA)
DNA 1: GTCTGGCTCCTAATTAGTTCGATTAGC
DNA 2: GCTAATCGAACTAATTAGGAGCCAGAC
B6: N2 (dsDNA)
DNA 1: GTCTGGCAATTAATATATTGCATTTGC
DNA 2: GCAAATGCAATATATTAATTGCCAGAC

What was measured:
Experiment in all cases: EMSA
Sumo-Arx (full-length) [1] = biological target: T1, Sumo-Arx (full-length) (Mus musculus, UniProt O35085 1-564)
T1 sequence (O35085 whole entry): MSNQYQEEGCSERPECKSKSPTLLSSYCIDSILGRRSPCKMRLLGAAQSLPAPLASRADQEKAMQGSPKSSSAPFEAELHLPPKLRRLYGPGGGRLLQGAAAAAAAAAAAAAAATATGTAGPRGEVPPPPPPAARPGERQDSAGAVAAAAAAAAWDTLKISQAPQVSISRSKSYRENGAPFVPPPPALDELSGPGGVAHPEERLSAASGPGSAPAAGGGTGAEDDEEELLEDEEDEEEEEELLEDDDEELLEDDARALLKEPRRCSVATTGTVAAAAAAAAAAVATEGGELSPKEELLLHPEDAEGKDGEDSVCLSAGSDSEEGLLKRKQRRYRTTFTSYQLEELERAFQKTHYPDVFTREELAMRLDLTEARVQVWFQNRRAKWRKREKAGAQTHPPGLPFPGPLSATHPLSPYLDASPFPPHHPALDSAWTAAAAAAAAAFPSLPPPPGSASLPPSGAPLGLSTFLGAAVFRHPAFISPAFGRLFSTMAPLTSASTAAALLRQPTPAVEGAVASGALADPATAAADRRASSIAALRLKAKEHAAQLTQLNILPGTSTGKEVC

His-Arx 214-430 [2] = biological target: T2, His-Arx 214-430 (Mus musculus, UniProt O35085 216-432)
T2 sequence (O35085 216-432): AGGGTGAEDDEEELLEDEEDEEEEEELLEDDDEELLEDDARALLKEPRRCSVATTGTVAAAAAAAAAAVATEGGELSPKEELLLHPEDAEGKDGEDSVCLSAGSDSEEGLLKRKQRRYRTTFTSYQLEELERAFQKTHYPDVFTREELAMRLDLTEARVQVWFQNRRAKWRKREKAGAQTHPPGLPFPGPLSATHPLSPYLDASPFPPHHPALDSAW

GST-Arx 214-430 [3] = biological target: T3, GST-Arx 214-430 (Mus musculus, UniProt O35085 216-432)
T3 sequence (O35085 216-432): as above

GST-Arx 286-430 = GST-Arx 286-430 (Mus musculus, UniProt O35085 288-432)
GST-Arx 286-430, sequence (O35085 288-432): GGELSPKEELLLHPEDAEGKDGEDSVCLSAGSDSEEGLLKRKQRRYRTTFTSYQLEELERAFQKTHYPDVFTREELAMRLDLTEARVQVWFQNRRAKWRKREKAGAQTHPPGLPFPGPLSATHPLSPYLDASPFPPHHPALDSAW

His-Arx 214-430 [4] = biological target: T2, His-Arx 214-430; remark: listed apart in the source
GST-Arx 214-430 [5] = biological target: T3, GST-Arx 214-430; remark: listed apart in the source
GST-Arx 286-430 L343Q = GST-Arx 286-430 L343Q (Mus musculus, UniProt O35085 288-432, L345Q)
GST-Arx 286-430 L343Q, sequence (O35085 288-432 L345Q): as the sequence (O35085 288-432) above, with L58Q counted along it

Sumo-Arx (full-length) [6] = biological target: T1, Sumo-Arx (full-length); remark: listed apart in the source

Row | Binder | binding signal (Sumo-Arx (full-length) [1]) | binding result (His-Arx 214-430 [2]) | binding result (GST-Arx 214-430 [3]) | binding signal (GST-Arx 286-430) | binding signal (His-Arx 214-430 [4]) | binding signal (GST-Arx 214-430 [5]) | binding result (GST-Arx 286-430 L343Q) | binding result (Sumo-Arx (full-length) [6])
1 | B1 | 100 % of strongest probe for this protein | no binding | no binding | – | – | – | – | –
2 | B2 | 38 % of strongest probe for this protein | – | – | 100 % of strongest probe for this protein | 100 % of strongest probe for this protein | 86 % of strongest probe for this protein | – | –
3 | B3 | – | – | – | – | – | – | no binding | –
4 | B4 | – | – | – | 81.6 % of strongest probe for this protein | 46 % of strongest probe for this protein | 33.6 % of strongest probe for this protein | – | no binding
5 | B5 | 17 % of strongest probe for this protein | – | – | 95 % of strongest probe for this protein | 97 % of strongest probe for this protein | 100 % of strongest probe for this protein | – | –
6 | B6 | – | no binding | no binding | – | – | – | – | no binding
